Target: SMC3-474/702 hinge domain (GAL4:SMC3 fusion in pBIND) (UniProt Q9CW03)
Test: two-hybrid; mammalian two-hybrid (Promega Checkmate) in 293 cells: SMC3-474/702 in pBIND, SMC1-474/663 in pACT, pG5/luc reporter, with Hinderin-V5 expression vector (0.3 or 1 ug/ml) or empty pcDNA3.1; luciferase after 48 h, corrected by Renilla

UniProt Q9CW03, sequence (Q9CW03 474-702): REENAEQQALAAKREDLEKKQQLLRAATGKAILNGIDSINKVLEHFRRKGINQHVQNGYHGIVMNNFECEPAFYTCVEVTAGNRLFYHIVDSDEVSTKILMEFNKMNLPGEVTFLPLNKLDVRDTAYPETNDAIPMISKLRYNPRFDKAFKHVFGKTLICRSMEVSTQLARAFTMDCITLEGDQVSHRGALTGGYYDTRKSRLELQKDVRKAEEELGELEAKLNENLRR

SMC1/SMC3 interaction (luciferase activity) in cells overexpressing Hinderin, percent: 34%
Substance: Hinderin-V5 (complete Hinderin coding region with V5 tag) (from UniProt Q86T90 1-577) (natural protein)
